From the supplement of paper PMC10567573

B1: PPEF2 (parent)
chain: DHSGFISLDEFRQTWKLFSSHMNI

Variants of: B1
Assay: protein stability index of a GFP-peptide fusion (GPS, HEK-293T) (PSI 1-6); higher = more stable
Settings: c terminus: a fixed tail appended
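Also: lentivirally expressed fusions sorted by FACS into six bins by GFP to DsRed ratio, PSI derived from sequencing read proportions per bin multiplied by bin number.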

Question: For DHSGFISLDEFRQTLKLFSSHMNI [W15L], which protein stability index is on record?
Answer: 1.88

Question: For DHSGFISLDEFRQTPKLFSSHMNI [W15P], which protein stability index is on record?
Answer: 1.81

Question: With DHSGFISLDEFRQTYKLFSSHMNI [W15Y] as the variant, how does the protein stability index read?
Answer: 2.15

Question: With DHSGFISLDEFRQTSKLFSSHMNI [W15S] as the variant, how does the protein stability index read?
Answer: 1.81

Question: With DHSGFISLDEFRQTQKLFSSHMNI [W15Q] as the variant, how does the protein stability index read?
Answer: 2.25

Question: For DHSGFISLDEFRQTGKLFSSHMNI [W15G], which protein stability index is on record?
Answer: 1.84

Question: For DHSGFISLDEFRQTNKLFSSHMNI [W15N], which protein stability index is on record?
Answer: 2.06

Question: Which protein stability index does the source give for DHSGFISLDEFRQTVKLFSSHMNI [W15V] here?
Answer: 2.1

Question: With DHSGFISLDEFRQTMKLFSSHMNI [W15M] as the variant, how does the protein stability index read?
Answer: 2.79

Question: Which protein stability index does the source give for DHSGFISLPEFRQTWKLFSSHMNI [D9P] here?
Answer: 1.21

Question: With DHSGFISLFEFRQTWKLFSSHMNI [D9F] as the variant, how does the protein stability index read?
Answer: 2.48

Question: For DHSGFISLCEFRQTWKLFSSHMNI [D9C], which protein stability index is on record?
Answer: 2.73

Question: For DHSGFISLIEFRQTWKLFSSHMNI [D9I], which protein stability index is on record?
Answer: 3.32

Question: With DHSGFISLDEFRQTWKLFSSSMNI [H21S] as the variant, how does the protein stability index read?
Answer: 1.86

Question: Which protein stability index does the source give for DHSGFISLDEFRQTWKLFSSRMNI [H21R] here?
Answer: 2.23

Question: For DHSGFISLDEFRQTWKLFSSGMNI [H21G], which protein stability index is on record?
Answer: 2.22

Question: Which protein stability index does the source give for DHSGFISLDEFRQTWKLFSSDMNI [H21D] here?
Answer: 1.91

Question: For DHSGFISLDEFRQTWKLFSSCMNI [H21C], which protein stability index is on record?
Answer: 2.9

Question: With DHSGFISLDEFRQTWKLFSSVMNI [H21V] as the variant, how does the protein stability index read?
Answer: 2.84

Question: Which protein stability index does the source give for DHSGFISLDEFRQTWKLFSSAMNI [H21A] here?
Answer: 1.63

Question: For DHSGFISLDEFRQTWKLFSSIMNI [H21I], which protein stability index is on record?
Answer: 2.54

Question: For DHSGFISLDEFRQTWKLFSSPMNI [H21P], which protein stability index is on record?
Answer: 2.11

Question: Which protein stability index does the source give for DHSGFISLDEFRQTWKLFSSEMNI [H21E] here?
Answer: 2.06

Question: Which protein stability index does the source give for DHSGFISLDEFRQTWKLFSSMMNI [H21M] here?
Answer: 1.49

Question: Which protein stability index does the source give for DHSGFISLDEFRQTWKLFSSKMNI [H21K] here?
Answer: 1.63

Question: Which protein stability index does the source give for DHSGFISLDEFRQTWKLFSSWMNI [H21W] here?
Answer: 2.02

Question: For DHSGFISLDEFRQTWRLFSSHMNI [K16R], which protein stability index is on record?
Answer: 2.02

Question: Which protein stability index does the source give for DHSGFISLDEFRQTWPLFSSHMNI [K16P] here?
Answer: 2.07

Question: With DHSGFISLDEFRQTWDLFSSHMNI [K16D] as the variant, how does the protein stability index read?
Answer: 1.71

Question: For DHSGFISLDEFRQTWFLFSSHMNI [K16F], which protein stability index is on record?
Answer: 1.94

Question: Which protein stability index does the source give for DHSGFISLDEFRQTWELFSSHMNI [K16E] here?
Answer: 1.73

Question: Which protein stability index does the source give for DHSGFISLDEFRQTWNLFSSHMNI [K16N] here?
Answer: 1.69

Question: For DHSGFISLDEFRQTWKLQSSHMNI [F18Q], which protein stability index is on record?
Answer: 1.72

Question: For DHSGFISLDEFRQTWKLVSSHMNI [F18V], which protein stability index is on record?
Answer: 1.91

Question: For DHSGFISLDEFRQTWKLDSSHMNI [F18D], which protein stability index is on record?
Answer: 2.57

Question: With DHSGFISLDEFRQTWKLGSSHMNI [F18G] as the variant, how does the protein stability index read?
Answer: 2.48

Question: Which protein stability index does the source give for DHSGFISLDEFRQTWKLMSSHMNI [F18M] here?
Answer: 1.64

Question: For DHSGFISLDEFRQTWKLYSSHMNI [F18Y], which protein stability index is on record?
Answer: 2.56

Question: With DHSGFISLDEFRQTWKLLSSHMNI [F18L] as the variant, how does the protein stability index read?
Answer: 1.46

Question: Which protein stability index does the source give for DHSGFISLDEFRQTWKLNSSHMNI [F18N] here?
Answer: 2.12

Question: With DHSGFISLDEFRQTWKLCSSHMNI [F18C] as the variant, how does the protein stability index read?
Answer: 2.02

Question: Which protein stability index does the source give for DHSGFISLDEFRQTWKMFSSHMNI [L17M] here?
Answer: 2.63

Question: Which protein stability index does the source give for DHSGFISLDEFRQTWKYFSSHMNI [L17Y] here?
Answer: 2.03

Question: Which protein stability index does the source give for DHSGFISLDEFRQTWKWFSSHMNI [L17W] here?
Answer: 1.29

Question: With DHSGFISLDEFRQTWKPFSSHMNI [L17P] as the variant, how does the protein stability index read?
Answer: 1.55

Question: Which protein stability index does the source give for DHSGFISLDEFRQTWKCFSSHMNI [L17C] here?
Answer: 1.59

Question: With DHSGFISLDEFRQTWKTFSSHMNI [L17T] as the variant, how does the protein stability index read?
Answer: 1.88

Question: Which protein stability index does the source give for DHSGFISLDEFRQTWKHFSSHMNI [L17H] here?
Answer: 1.66

Question: For DHSGFISLDEFRQTWKKFSSHMNI [L17K], which protein stability index is on record?
Answer: 1.81

Question: With DHSGFISLDEFRQTWKGFSSHMNI [L17G] as the variant, how does the protein stability index read?
Answer: 1.5

Question: For DHSGFISLDEFRQTWKNFSSHMNI [L17N], which protein stability index is on record?
Answer: 1.87

Question: For DHSWFISLDEFRQTWKLFSSHMNI [G4W], which protein stability index is on record?
Answer: 1.98

Question: With DHSCFISLDEFRQTWKLFSSHMNI [G4C] as the variant, how does the protein stability index read?
Answer: 2.41

Question: Which protein stability index does the source give for DHSDFISLDEFRQTWKLFSSHMNI [G4D] here?
Answer: 1.78

Question: With DHSRFISLDEFRQTWKLFSSHMNI [G4R] as the variant, how does the protein stability index read?
Answer: 1.87

Question: With DHSMFISLDEFRQTWKLFSSHMNI [G4M] as the variant, how does the protein stability index read?
Answer: 1.65

Question: For DHSKFISLDEFRQTWKLFSSHMNI [G4K], which protein stability index is on record?
Answer: 1.31

Question: With DHSGFIHLDEFRQTWKLFSSHMNI [S7H] as the variant, how does the protein stability index read?
Answer: 1.83

Question: With DHSGFICLDEFRQTWKLFSSHMNI [S7C] as the variant, how does the protein stability index read?
Answer: 2.37

Question: For DHSGFIRLDEFRQTWKLFSSHMNI [S7R], which protein stability index is on record?
Answer: 2.1

Question: For DHSGFIYLDEFRQTWKLFSSHMNI [S7Y], which protein stability index is on record?
Answer: 1.97

Question: Which protein stability index does the source give for DHSGFIDLDEFRQTWKLFSSHMNI [S7D] here?
Answer: 1.47

Question: Which protein stability index does the source give for DHSGFIFLDEFRQTWKLFSSHMNI [S7F] here?
Answer: 2.52

Question: Which protein stability index does the source give for DHSGFINLDEFRQTWKLFSSHMNI [S7N] here?
Answer: 2.06

Question: For DHSGFISLDEQRQTWKLFSSHMNI [F11Q], which protein stability index is on record?
Answer: 1.56

Question: Which protein stability index does the source give for DHSGFISLDELRQTWKLFSSHMNI [F11L] here?
Answer: 3.54

Question: Which protein stability index does the source give for DHSGFISLDEMRQTWKLFSSHMNI [F11M] here?
Answer: 2.14

Question: For DHSGFISLDECRQTWKLFSSHMNI [F11C], which protein stability index is on record?
Answer: 1.94

Question: With DHSGFISLDENRQTWKLFSSHMNI [F11N] as the variant, how does the protein stability index read?
Answer: 1.51

Question: With DHSGFISLDEHRQTWKLFSSHMNI [F11H] as the variant, how does the protein stability index read?
Answer: 1.95

Question: With DHSGFISLDESRQTWKLFSSHMNI [F11S] as the variant, how does the protein stability index read?
Answer: 1.68

Question: Which protein stability index does the source give for DHSGFISLDEGRQTWKLFSSHMNI [F11G] here?
Answer: 2.52

Question: Which protein stability index does the source give for DHSGFISLDEFRFTWKLFSSHMNI [Q13F] here?
Answer: 3.91

Question: For DHSGFISLDEFRPTWKLFSSHMNI [Q13P], which protein stability index is on record?
Answer: 2.35

Question: For DHSGFISLDEFRMTWKLFSSHMNI [Q13M], which protein stability index is on record?
Answer: 3.2

Question: With DHSGFISLDEFRVTWKLFSSHMNI [Q13V] as the variant, how does the protein stability index read?
Answer: 2.95

Question: Which protein stability index does the source give for DHSGFISLDEFRHTWKLFSSHMNI [Q13H] here?
Answer: 1.87

Question: With DHSGFISLDEFRNTWKLFSSHMNI [Q13N] as the variant, how does the protein stability index read?
Answer: 2.65

Question: For DHSGFISLDEFRLTWKLFSSHMNI [Q13L], which protein stability index is on record?
Answer: 3.59

Question: Which protein stability index does the source give for DHSGFISLDEFRQTWKLFSSHLNI [M22L] here?
Answer: 1.79

Question: With DHSGFISLDEFRQTWKLFSSHWNI [M22W] as the variant, how does the protein stability index read?
Answer: 2.49

Question: With DHSGFISLDEFRQTWKLFSSHQNI [M22Q] as the variant, how does the protein stability index read?
Answer: 1.88

Question: Which protein stability index does the source give for DHSGFISLDEFRQTWKLFSSHKNI [M22K] here?
Answer: 2.1

Question: Which protein stability index does the source give for DHSGFISLDEFRQTWKLFSSHHNI [M22H] here?
Answer: 1.61

Question: With DHSGFISLDEFRQTWKLFSSHSNI [M22S] as the variant, how does the protein stability index read?
Answer: 1.55

Question: For DHSGFISLDEFRQTWKLFSSHANI [M22A], which protein stability index is on record?
Answer: 1.88

Question: With DHSGFISLDEFRQTWKLFSSHMNF [I24F] as the variant, how does the protein stability index read?
Answer: 1.9

Question: With DHSGFISLDEFRQTWKLFSSHMNY [I24Y] as the variant, how does the protein stability index read?
Answer: 2.04

Question: With DHSGFISLDEFRQTWKLFSSHMNM [I24M] as the variant, how does the protein stability index read?
Answer: 2.04

Question: With DHSGFISLDEFRQTWKLFSSHMNQ [I24Q] as the variant, how does the protein stability index read?
Answer: 1.78

Question: For DHSGFISLDEFRQTWKLFSSHMNT [I24T], which protein stability index is on record?
Answer: 1.89

Question: Which protein stability index does the source give for DHSGFISLDEFRQTWKLFSSHMNP [I24P] here?
Answer: 1.87

Question: Which protein stability index does the source give for DHSGFISLDEFRQTWKLFSSHMNK [I24K] here?
Answer: 1.79

Question: With DHSGFISLDEFRQTWKLFSSHMNV [I24V] as the variant, how does the protein stability index read?
Answer: 2.01
